Molecular target: T1, recombinant human granulocyte-macrophage colony stimulating factor (hGM-CSF) (human, UniProt P04141 18-144)
T1 construct: also called recombinant GM-CSF; recombinant hGM-CSF
Assay: BIAcore, antibody immobilised on sensor chip, recombinant hGM-CSF as analyte
Protocol: Affinity analysis was conducted on the anti-hGM-CSF antibody applying BIAcore® system (FIG. 4). In the method, the antibody (purified antibody) was immobilized to a sensor chip, and then an antigen (recombinant) was added to the surface of the immobilized antibody, so that the interaction between antibody and an antigen was measured. A purified antibody was applied to the antibody, and a recombinant hGM-CSF was applied to the antigen. A mouse anti-GM-CSF monoclonal antibody (commercially available) (R&D) was applied to a positive control, and a purified anti-human cytomegalovirus monoclonal antibody was applied to a negative control. After the analysis, it turned out that antigen-antibody interaction was not detected in the negative control. In the positive control, dissociation constant of 6.1×10^-9 M is shown as the affinity. The affinity of the anti-GM-CSF antibody obtained was 2.1×10^-10 M (FIG. 5).

T1 sequence (P04141 18-144 limits assumed): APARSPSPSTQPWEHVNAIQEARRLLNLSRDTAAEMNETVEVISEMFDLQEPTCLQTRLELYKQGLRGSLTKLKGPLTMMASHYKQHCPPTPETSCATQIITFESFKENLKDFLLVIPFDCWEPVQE

B1: anti-hGM-CSF human monoclonal antibody J158 4C (antibody, human IgG1, kappa, V domains shown)
VH: LVQLVQSEAEVKKPGASVRISCRTSGYIFPTFALHWVRQAPGQSLEWVGSINTASGKTKFSTKFQDRLTLSSNTSATTVYMDLSGLTLDDTALYYCARDRFQNIMATILDVWGQGTLVTVSS
VL: DIVLTQSPGTLSLSPGERVTVSCRASHRVSSNYLAWYQQRPGQSPRLLIFGASNRATGVPDRFSGSGSGTDFALTISRLEPDDFAVYYCQQYASSPVTFGGGTKLEIKR
notes: also called anti-hGM-CSF antibody; anti-GM-CSF antibody
Kd: 0.21 nM

From patent US7935795 (EVEC, dated 2011)
